The values below come from the DeepSol protein solubility set.

The nature of this series: soluble on expression in E. coli; label from the status in PepcDB or PDB records.
On to “MLIAQEQEQSSISLLAEVSRAVNNEEDISKVLRLVLFILSEHMNMLRGMVTILNRTTGEMVINESFGLTDEQRQLARYKVGEGIIGQVVKTGRPSVVPRINEEPLFLDRTQSRAEENKEELCFICVPIKVGREVIGTLSADRRISVPAENGDKKLWRKSDRIDVLQYYVDLLSIIAAMIAQAVRIKQLDDEKS”, for which the “soluble on expression in E. coli” value is reported as “not soluble”. On to “MLIGVISDTHIPDRASEIPEAVFDAFRDVELILHAGDLTSPDILTELETLAPVECVQGNMDRHYGIETPRSRLFEIESFRVGLIHGEVYPRGDTQQLRYLGLELGADVLISGHTHQPFIRELEDMVLLNPGSPTVPRLTDPSVMVLRIDGEKLDAEIIRTGAPVCRSLNFRR”, for which the “soluble on expression in E. coli” value is “not soluble”.

Consider “MLIILTGLPSVGKSTFSKAFSKKMAEKNIDNIILGTDLIRESFPVWKESYEEFIRDSNNYLIKEALENKFSVIVDDTNYYNSKRRDLMNIAKECDTNYVTIYLKAPLNLLLKRNIERGQKIPNEVIKNMYEKFDTPGTKYAWDLPDITVDTTEKIDYNEILNEILEINENKNLKIEEDKIPKSEPVESDLVKIDSLTRNIVGNLIKTGKIDKKDIKLLSEIRKSFLKDCKKIESEKLDFEKIEKDFLDYLNKNLK”, for which the “soluble on expression in E. coli” value is “not soluble”. The entry for “MLILNQRQQELLDMVKRESYVSVEKLADHFSVTRQTIRRDIALLAEHQLLQRYHGGASVLSSVENVAYQARQVLCIEEKRRIAACVARHIPDNASLFINLGTTTEEVAKALHRHRGLRVITNNLHVAEQMCDYPDCEVIVLGGSLRKRDRGLTGEATVQMIRQFRVDYGIIGVSSIESDGTLRDYDYREVRTTEAIIQQSRQVFLAADHSKFDRPALVELGRLSQIAALFTDKPVPPAIAHVMQEAGTQLHVAELEHHHHHH” is “soluble”. In the case of “MLKANVFCAGPVEALILDWAGTTIDFGSLAPVYAFMELFKQEGIEVTQAEAREPMGTEKSEHIRRMLGNSRIANAWLSIKGQASNEEDIKRLYDLFAPIQTRIVAQRSQLIPGWKEVFDKLIAQGIKVGGNTGYGPGMMAPALIAAKEQGYTPASTVFATDVVRGRPFPDMALKVALELEVGHVNGCIKVDDTLPGIEEGLRAGMWTVGVSCSGNEVGLDREDWQALSSDEQQSYRQHAEQRLFNAGAHYVIDSVADLETVITDVNRRLARGEKP” it was “soluble”; in that of “MLKEHSKKQHLRREVQEKLKNEAIVAAQTLSTAVVDHLNAKVAQAYGNQKRLDVEAKRFENNSAALAKQTEQWLFITEGLNYALKEIGDVENWSKTIENDMKIITETLRRAYEAKNPPLPPNQANPASH”, “not soluble”.

For the sequence “MLKHDLDYLELLSESFPTATEAATEIINLEAILNLPKGTEHFLADIHGEYEAFIHVLKNASGSIRRKVDEVFGGQLRQNQKRELCTLIYYPREKLELVKQSDERMEDWYMVTLNQLIKVCQKAAEKYTRSKVRKTLPPKYSYIIQELLHEDGVNPNKSAYISSIFSSIISTGCADDFIIAISETIQRLVIDHLHVVGDVFDRGPGAHIIMDTLMKYHHFDIQWGNHDMLWMGAAVGNASCMANVVRIALRYANLDTLESGYGINLLPLARFAMDTYADDPCTVFKPKLAQADQTYDDKSVYLISQMHKAISIIQFKLEHQIIARHPEYKMDNRDLFHLVNFTDGTIKLSSGVYPMLDMNFPTVDPADPYALTEQEQNIVDRLMGCFMRSEKLQNHLKCLYRHGSMYLTYNMNLLYHASIPLNKDKSLKKVRVGDKTYAGRELLDKVEEMIRTAYVAPEKSDQRLAAVDYMWYLWCGPDSPLFDKAMMTTFERYFIEDKATHHEEKGYYYVYRQEKAVCEMILKEFGLEGPDTHIINGHVPVKAKKGELPIGAEGKLMLIDGGFSKAYQSSTGIAGYTLIFNSQGLHLVQHEPFSSTRKAIEEMEDIKSITVVREVTSHRMLVKDTDNGHLLSKQVENLKKLLQAYSYGLIKERKK”, the “soluble on expression in E. coli” value is on record as “not soluble”.

With “MLKHLLPLGTRDEFGRRARTKQHLIAVIQAHFKQRGLAPIATPLLENEAVFDPYQMGNYQLYRLFGNDGRTLVLRPDMTLPVARFISATNVPLPQKFGYVGDIFRVSRQLSGSYNQITQAGVELVGYASLKAEFECLTIANQLSSELIADAVEIELGDAQFAQRVVASLTGDEGEQQAILTALFDKQVPRYTKLIAKYRAQPLYDFLKAWPRLFGRPECIFKELAAAPLPETVQPSLKRLQTVVAWMQQTMPEQVISVDLSSQAPQKYYTGLTFRGYSQAGAGYLFSGGRYDKLLTNFQAEAEPAVGMGLNVDLLTTLATDQQTAYAEQLIYFEPEQWSQAEAYLAKQPHAILSLADDLAGARIEAQRLNAQLIDLTGGMTND”, the “soluble on expression in E. coli” value is “not soluble”. The entry for “MLKLKFNEEGLIPVIAQDYRTGEVRMLAYANEEAIKKTLETGYAHYYSRSRKKIWKKGETSGELQKVIEVRVDCDEDALIYVIEQEKDRACHTGERNCFFRDIEGNKVEKPLPFEVLPRLQDVIREKIERKEENSYTAKLVSQGKERVFQKFGEEAVETLIALMKGEKEEVIYESADMLYTFLVSLSVSGIDIKEVMEELIRRFK” is “soluble”; for “MLKLRFPLPVFRNAREIANGRNARMALKGLVANRAALIISPSFGSSQYFEQVVRLINAQSVRVIERSWQGEPSVEELSGVIGELEDFKPDYILALGGGSIIDGAKLAWLFYECPTLESELLYRPFALPSLRGRAKFAAIPTTVGAGSEVSSAAVMLDSVTNSKKAVVTHDFLPDLVILDPDLVSEVPPKVLKTTVADALSHAIEGYVSLIDNPLMNTFAEQAVSIIYRYRHQFSNDNWSSEMLSELQQAAMFAGWVQNHCIVGLSHAIAHQLGTFNIGHGLANGLLMPAVINFNYREHTAATKYEQLIYKSGLPNKEALLELFEVLVGEQKTDMHFSEQQLTTIAENALLDPAAKSNPVRFTENDVKEIVKQCL” it is “not soluble”.

Turning to “MLKRLGIVGFGASAIGFINGLIESGKVKDYRITVLERGKDYSHNTISGVRMDGKIFISHGMGGEIYIPLEIQAKTVEFYLKFSGYTPTVDKRVGIVNYLKSFERDGRKIEFGESFSDEEIYKRFYHHGFEPVKSYFFHLGTDILKETNKNIYEYFSSFENIEFLFGTTVEDVEFGPPHRVHTNRGDFEFDELVIAVGRSGHRLMERLKEKYPQLVRPNQFVDIGVRYELPNHVMDPFSDMYEVKVRYRTKTGYICRIFCQNPAGKVTLEKYEDFTTVNGYSDSLHKTENTNFAILVTTRFTEPFKDPTGYGVNLAKLANILAGDKEKVILQTYGDFKEFRRTKRLGRVHPTLDSESYILGDANLVFPSKIRESLVDFVENLEKVIPGASYFDNLLYAVEVKFYTNKFLNDIVEGLHVVGDCSGWTRSIQYATSMGYMRAVGMKIQSLLEHHHHHH”, the “soluble on expression in E. coli” value is reported as “not soluble”. In the case of “MLKTAYQRSPKQELAKNTPFFNETDLKHSFIIDFENQEFIHHQAEPLNYLFYLIKGKAKILKTERNGRQSIVQFLTAGDLIGDLTLVQAETITKDVIALGETCCLAVPLAYAETVLKNKVLFMQQLSHYLGKKMLQRVDHFTTNQTYELSYRLAELLLVAANHEDVYKEKHTEIAEYLGVSYRHLIYTFKQFRERGFIQKQGTAYHINRLALHSFVQKMKS” it was “not soluble”; in that of “MLLDSIFFRTHPDWIVCCRFLQGVGTDREKREENGRKKTVKITIFSDCMLWANPISLCIRHRAVFNNRNLRMDFSSYTILCLNRLDAWIPAFGIPK”, “not soluble”; in that of “MLLHLPNGDVLCVWFGGTQEGIADISIYMSRLVKDSGSWSKAAKLSEDATRSEQNPVLFLAPDNVLWLLYTAQKSGNQDTAIVRYRQSTDLGATWGEIGTLLDQPGTFIRQPITVLENGDWLLPVFYCRVQPGEKWVGNDDDSAVKISSDQGKTWREYPVPNSTGCVHMNITPLQDGTLLALYRSRWADFIYQSRSTDGGKTWSEPVATDLPNNNSSIQVTTLKNGHLALVFNHMSAADATDRRLSLYDELEHHHHHH”, “soluble”. As to “MLLIDKGHDIYKRNCPILQKKIEKCPPPAGKKDYAGCVPACSITNGFGGAGAYSDGKFNITSEFGGWMTDYLPASTVLELIRYVDEINLKHGATTSITDPMTDKVKEIERRAYAAGLKLLRAYVRHLGTEQNLAILQSIFEYLRERITMRFKTEVDDIVTERTEDGHEVKGVVLKNGETLTAEKVVIAPGRDGSVWLSKLLRKRRLRMINNQVDIGVRVETSNIVMQEINEHLYEGKFIFNTSVGTQVRTFCSNPSGHVVVENHSGIMLANGHAYKDPKLGSSNTNFALLVSHKFADPFDKPNEYAHEISRLANALSNGGIIVQKYGDILKGRRSTEKRIKEGFIEPTLKEAVPGDLGLVLPYNTMKSLIEMTEALNHVTPGLASEHTLFYGVEAKFYSARPKLNDRFETEIAGLYVGGDGAGITRGLAQASACGVWIARDIVEKLTRLEHHHHHH”, the “soluble on expression in E. coli” value is on record as “not soluble”. For the sequence “MLLLTRSPTAWHRLSQLKPPVLPGTLGGQALHLRSWLLSRQGPAETGGQGQPQGPGLRTRLLITGLFGAGLGGAWLALRAEKERLQQQKRTEALRQAAVGQGDFHLLDHRGRARCKADFRGQWVLMYFGFTHCPDICPDELEKLVQVVRQLEAEPGLPPVQPVFITVDPERDDVEAMARYVQDFHPRLLGLTGSTKQVAQASHSYRVYYNAGPKDEDQDYIVDHSIAIYLLNPDGLFTDYYGRSRSAEQISDSVRRHMAAFRSVLS”, the “soluble on expression in E. coli” value was “not soluble”. Regarding “MLLMRRFAFLTSSVYFKYIPIYSQYHYSSQFPINMNPKKVAQLPVHNKSTLPPQEIIDLFKITFLEELYPKDQDNEKSPLTEQIQAVKSDLYNRDYNAAFNNDSKRIAYCCRWSPSRATSYASVFAHFPELLKIIRCEIDDKDSNVLCIGGGAGGELVALASIFTLSRDFSSKFASALKIDNEVNKKPRNLNIQLVDIADWSTVVEKLTATIKSKWLYGDSEAESFNVNFTHKDCLQMTEPQDIKIYQGLDLITLLFTTNELFTQKKVESIKFLQRLNENCAPGCHLLILESAGSYSHITINNKKFPIQFLIDTILVGNRKDKGTTGPWSLVSENDSIWYRMDPKLDYSIPLENMRFFYRLYVKN”, the “soluble on expression in E. coli” value is listed as “not soluble”. In the case of “MLLRKGTVYVLVIRADLVNAMVAHARRDHPDEACGVLAGPEGSDRPERHIPMTNAERSPTFYRLDSGEQLKVWRAMEDADEVPVVIYHSHTATEAYPSRTDVKLATEPDAHYVLVSTRDPHRHELRSYRIVDGAVTEEPVNVVEQYLEHHHHHH” it was “not soluble”. In the case of “MLMATMTPWYLYLIRTADNALYTGITTDVARRYRQHQTGKGAKALRGKGELTLAFAAQVGDRSLALRIEYRIKQLTKRQKERLVTEREAFEALLSSLQTPVLKND” it was “not soluble”; in that of “MLNDGEVTPSRHEILSMVKKHSKSLGKTSLDEQDASDVEMDSNFWHGVFDVYFVRCMESRRRQDDDLLFFVRKLSCKSYGLTENEDAPAPYFVRRWAPKLDELLGESLAEVDWRKSFYLNMIAHTSFTVTVAICSNEALKTYQGSKDTKLSPIYKVVKTVYASPSRVNFHLDSKKEVETTPAYPEICFAVDDFDSTFDAVVLTDKDHCYCVLLNSHDGAAFPSATVKDSSDSNTNADPRTVKDPKVTLFSGFVSYQMVREAYEGGRNRFGSLLSLGHITGKADRLYMRGPGGRGEVEVAVSGVVDQSQVVLGPVSPMSSKKSIDLGSIFRKAASVASVAAKHAIAAATASYDEDEMFPLKCCLMSISLPWDTIAHDLLFKATPPVNME”, “soluble”; in that of “MLNFLSISSEPKIKSLAIGKFDGLHLGHQALFKELKDPKALLIIEKKHYTKGYLTPLKYRAKLVGMPLFFVYLEEISQLNALDFLDLLKKKFPHLERLVVGYDFRFGHERQNDALFLKERFEKTIIVPEVKVQEISVHSKMIKLALSHGDLSLANKLLGRPYEVCGEVISDQGLGHKELAPTLNIKTKDFILPSFGVYASLVKIKDPIYQKSVSFIGNRLSTDQNFAIECHVLDTIIENPPQEIALRWVQKIRDNMRFSSLKELKNQIQQDILRAKEILR”, “not soluble”.
